Data on 167 variants can be found in the RNAGym collection of RNA variant scans (doi:10.7554/elife.80360).

Sequences and labels used below:
B1: HDV Ribozyme (parent)
chain: GGCCGGCAUGGUCCCAGCCUCCUCGCUGGCGCCGGCUGGGCAACAUUCCGAGGGGACCGUCCCCUCGGUAAUGGCGAAUGGGACCCA

The variants in the series derive from B1. Briefly: self-cleavage, relative activity (ratio to wild type); higher = more cleavage; co-transcriptional.
Take C4A C41A: the self-cleavage was determined as 0.117.
Take C36U G55U: the self-cleavage was 0.8.
As for C14U G34A, the self-cleavage is 0.17.
As for U47A G67C, the self-cleavage was found to be 1.12.
Turning to A8C U72A, the self-cleavage was found to be 0.375.
For C57G G80C the value was 0.125; for G73U G74U, 0.22; for C4A U37A, 0.0332.
In the case of A43U A45U it was 0.594.
For G67A A71C the value was 0.752; for C14U U47A, 0.906.
On to C24A C75G, for which the self-cleavage was determined as 0.0898.
For C14U U72G the value was 0.598.
For G2C G81U the value was 0.0203; for A42C U47G, 0.0594; for G25U U65G, 0.269.
For the variant C15G U37G, the self-cleavage was found to be 0.
Regarding A83U C84U, the self-cleavage turned out to be 0.87.
In the case of C7A C19G it was 0.145; in that of C44U C86G, 0.928; in that of U60G G73A, 0.591.
In the case of A16G U47A, the self-cleavage was 1.16.
On to C19A C48A, for which the self-cleavage was found to be 0.0934.
On to A56G A71G, for which the self-cleavage turned out to be 0.918.
Take A77C C85A: the self-cleavage was 0.506.
For C3A U37A, the self-cleavage worked out at 0.122.
For U46A C62G the value was 0.289.
On to C33A U79A, for which the self-cleavage stood at 0.128.
For C3U C14U the value was 0.758; for G28U C66U, 0.19.
For the variant U79C G80U, the self-cleavage stood at 0.267.
Consider C33A C62U, for which the self-cleavage was found to be 0.241.
With A16C C26U, the self-cleavage was found to be 0.886.
In the case of C21G C62A, the self-cleavage worked out at 0.119.
For A43G A45G the value was 0.554.
Take C13G U23C: the self-cleavage is 0.
For C4U C44U, the self-cleavage was found to be 0.394.
For the variant G10A G55C, the self-cleavage worked out at 0.734.
As to G17U U79G, the self-cleavage was determined as 0.406.
In the case of G55A U65A it was 1.06; in that of A16U A71C, 0.942; in that of A16C A43G, 0.138.
In the case of U27A A87U it was 0.602.
For the variant U23A C57U, the self-cleavage amounted to 0.812.
Regarding A78G G80C, the self-cleavage came to 0.329.
In the case of G73U A77U, the self-cleavage was determined as 0.0811.
In the case of C22G C24G, the self-cleavage worked out at 0.0339.
For C4A C21G the value was 0.
In the case of G6A A70G it was 0.629.
As to G29U U60A, the self-cleavage was 0.248.
For C30U G55C the value was 0.523; for G2A U23A, 0.219.
As for A16G C32U, the self-cleavage worked out at 0.811.
For C21U G68U, the self-cleavage was 0.271.
For C14U G55A the value was 1.21; for C13A C49A, 0.0489; for G54C G68A, 0.858.
In the case of C57U A70C it was 0.855.
For C30A G81C the value was 0.201; for A71G A78G, 0.772.
In the case of G11A C30U, the self-cleavage was 0.0645.
For U37A G59U the value was 0.181.
Turning to C32U C36U, the self-cleavage is 0.493.
In the case of A16G U60C it was 1.14.
Consider U20A U79A, for which the self-cleavage amounted to 0.0573.
For the variant G11U A83G, the self-cleavage was determined as 0.175.
With C24G U79G, the self-cleavage was 0.
In the case of C58U it was 1.04; in that of A16G C57A, 1.18.
For G38A A43U the value was 0.111; for G28C A43G, 0.0573; for C57U G67C, 1.11.
In the case of U12A A42U, the self-cleavage was determined as 0.119.
For G50A G82C the value was 0.409; for G35A C49G, 0.425.
A8G C75A: the self-cleavage stood at 0.0692.
In the case of G50U G73C, the self-cleavage stood at 0.268.
For G35U G38C the value was 0.0536; for A70U A83G, 0.902; for G35U A43C, 0.208.
For G2U G11C the value was 0.0314; for C57G A87U, 0.861.
As for C41G U47A, the self-cleavage came out at 1.12.
In the case of C32U G76A it was 0.946.
In the case of G55C G82C it was 0.277; in that of G10A C44A, 0.321.
G25C U65A: the self-cleavage came to 0.155.
In the case of G6C A87U it was 0.282; in that of C57U C64G, 0.946.
For G6A A83G the value was 0.302; for C26G A42G, 0.639; for U46A C49A, 0.665.
For C4A C32A the value was 0.0332.
On to G31A G81U, for which the self-cleavage amounted to 0.126.
C30G C36U: the self-cleavage turned out to be 0.0443.
For G5U C66G the value was 0.554.
Consider U9C A16G, for which the self-cleavage was determined as 1.51.
In the case of C19U C75G it was 0.0739; in that of G2A C36G, 0.0764; in that of G68A A83C, 0.519.
Regarding C22G C36U, the self-cleavage stood at 0.108.
For G25A G40U the value was 0.161; for A45G U46A, 0.806; for C36A G76C, 0.241.
In the case of G1C G38A it was 0; in that of G2A C75U, 0.0715; in that of G1A U46C, 0.208.
In the case of C30A A78C it was 0.117; in that of G35C C85G, 0.0923.
Consider A16U C44A, for which the self-cleavage was 0.598.
Regarding C30G G82C, the self-cleavage came to 0.0326.
In the case of C44A G59C it was 0.796; in that of C36G A71C, 0.0475; in that of C24A G67C, 0.739.
Take U46C C86G: the self-cleavage was 0.852.
As for G74C A77G, the self-cleavage came to 0.145.
With U12G C57U, the self-cleavage came out at 0.831.
As for U23A C24U, the self-cleavage turned out to be 0.199.
For C3U G40C the value was 0.26.
For C13U U23C the value was 0.415.
As for G39C G40A, the self-cleavage worked out at 0.695.
For U60G G67A the value was 0.91; for G2A U12A, 0.
C15G C58A: the self-cleavage turned out to be 0.437.
Turning to A45G G50C, the self-cleavage is 0.989.
For C21U C24G, the self-cleavage was determined as 0.0545.
In the case of G1A G40C, the self-cleavage was 0.0437.
As to C41A A42C, the self-cleavage came out at 0.739.
Take U23A C63U: the self-cleavage was 0.96.
In the case of A42U U65A it was 0.434; in that of G28A G52C, 0.0773; in that of A45G A51G, 0.612.
For the variant G55A G73C, the self-cleavage came to 0.658.
In the case of G55A C75G it was 0.136; in that of C21G G80U, 0.0963.
On to C26U A43C, for which the self-cleavage was 0.831.
In the case of C18U A56U it was 0.745.
In the case of C26G G31U it was 0.48; in that of C22U G74C, 0.157; in that of C26U A77C, 0.883.
With A78C C85G, the self-cleavage amounted to 0.0852.
In the case of G25A G50A it was 0.406; in that of C7U G17U, 0.259; in that of A45U C85U, 0.877.
For C13A A77C the value was 0.0462.
For U12G C32U the value was 0.399; for G34C A83U, 0.0755; for C4A U46G, 0.0615.
For the variant C3U G73A, the self-cleavage came to 0.366.
Take G6C C86A: the self-cleavage was 0.482.
For C26G G76U the value was 0.916; for G6C G38C, 0; for A71U G73C, 0.54.
In the case of C3G C26A, the self-cleavage was 0.669.
For the variant U23C U27G, the self-cleavage was 1.06.
In the case of G29A U69A it was 0.172; in that of C24U C32G, 0.
For the variant G1C C18U, the self-cleavage worked out at 0.0437.
G35C C86A: the self-cleavage came to 0.212.
Take C7G U23C: the self-cleavage turned out to be 0.
Regarding G6C A45U, the self-cleavage is 0.0615.
For C36G C85A the value was 0.251; for U20C C24A, 0; for G11C A51G, 0.297.
On to U20G C44G, for which the self-cleavage stood at 0.
As for A16G A70G, the self-cleavage was 1.33.
In the case of U23A A77U, the self-cleavage worked out at 0.567.
